Results published in patent US20240327815A1.

Key:
[1] = biological target: Delta SARS-CoV-2 spike on pseudotyped lentivirus (SARS-CoV-2) (UniProt P0DTC2); assay: cell-based or functional assay
[2] = biological target: Alpha SARS-CoV-2 spike on pseudotyped lentivirus (SARS-CoV-2) (UniProt P0DTC2); assay: cell-based or functional assay
[3] = biological target: Beta SARS-CoV-2 spike on pseudotyped lentivirus (SARS-CoV-2) (UniProt P0DTC2); assay: cell-based or functional assay
[4] = biological target: spike of live SARS-CoV-2 Delta variant (SARS-CoV-2) (UniProt P0DTC2); assay: cell-based or functional assay
[5] = biological target: spike of live SARS-CoV-2 Beta variant (SARS-CoV-2) (UniProt P0DTC2); assay: cell-based or functional assay
[6] = biological target: B.1.1.7 (Alpha) SARS-CoV-2 spike protein, plate-coated (MSD) (SARS-CoV-2) (UniProt P0DTC2); assay: MSD competition vs labelled ACE2
[7] = biological target: P.1 (Gamma) SARS-CoV-2 spike protein, plate-coated (MSD) (SARS-CoV-2) (UniProt P0DTC2); assay: MSD competition vs labelled ACE2
[8] = biological target: Delta SARS-CoV-2 spike protein, plate-coated (MSD) (SARS-CoV-2) (UniProt P0DTC2); assay: MSD competition vs labelled ACE2
[9] = biological target: Omicron SARS-CoV-2 spike protein, plate-coated (MSD) (SARS-CoV-2) (UniProt P0DTC2); assay: MSD competition vs labelled ACE2
[10] = biological target: B.1.351 (Beta) SARS-CoV-2 spike protein, plate-coated (MSD) (SARS-CoV-2) (UniProt P0DTC2); assay: MSD competition vs labelled ACE2

REGEN-COV
Pseudovirus Neutralization (IC50, nM) [1]: 0.05 nM
Pseudovirus neutralization IC50 [1]: 0.05 nM
Pseudovirus Neutralization (IC50, nM) [2]: 0.06 nM
Pseudovirus Neutralization (IC50, nM) [3]: 4.9 nM
Live virus neutralization (MN50, nM) [4]: 0.05 nM
Live virus neutralization MN50 [4]: 0.05 nM
Live virus neutralization (MN50, nM) [5]: 0.08 nM
IC50 [6]: 0.06 nM
IC50 [7]: 0.4 nM
IC50 [8]: 0.05 nM
IC50 [9]: 13.1 nM
IC50 [10]: 0.35 nM
